From US7820179B2, “Pegylated PTH as PTH receptor modulators and uses thereof” (Eli Lilly and Company, priority 2006, dated 2010)
No end group written: not given here.

Key:
Assay type in all cases: in vivo, rat
[1] = tested on: young adult osteopenic ovariectomized rats; assay: Young adult osteopenic ovariectomized rats: femur BMD (QCT) and serum calcium; details: young adult Ovx rats
Method: Female Sprague-Dawley rats about 3 months of age are ovariectomized, except for sham controls, and maintained on a 12 hour light/dark cycle at 22° C. with ad lib access to food (TD 89222 with 0.5% Ca and 0.4% P, Teklad, Madison, Wis.) and water. Ovariectomized (Ovx) rats are allowed to lose bone for 25 days, and then weighed and randomized into treatment groups. Treatment is by subcutaneous injection of a compound of the invention at various doses (as indicated in Table 2 below) for 1 month in a vehicle of 20 mM NaH2PO4 in 0.9% NaCl, 3 mg/ml mannitol, pH 5. The rats are injected with the compounds every third or fourth day to approximate once weekly administration to a human. Sham and Ovx controls are treated with the vehicle only (“sham vehicle control” and “ovx vehicle control”). Sera are collected by cardiac puncture approximately 24 hours after final injection under isoflurane anesthesia at necropsy (approximately 24 hours after the final injection), and analyzed using a clinical chemistry analyzer (Hitachi 917, Tokyo, Japan).
At necropsy, left femora are removed, cleaned of soft-tissue and stored in 50% ethanol/saline at 4° C. At room temperature, femora in 50% EtOH/saline are wrapped in Parafilm and centered with respect to the gantry for quantitative computed tomography (QCT) (Research M, Stratec). […]

[2] = tested on: aged osteopenic ovariectomized rats; assay: Aged osteopenic ovariectomized rats: vertebral BMD/BMC, bone biomechanical strength, serum calcium
Method: Hypercalcemia is defined herein as the upper 97.5 percentile serum calcium value of normal ovariectomized vehicle controls for the animal type used, using clinical chemistry data and sera collected from cardiac puncture (International Federation of Clinical Chemistry, H E Solberg in Tietz Fundamentals of Clinical Chemistry, 5th edition, Burtis C A and Ashwood E R, editors, 2001, pp 251-261). The value reflecting the 97.5 percentile is 11.2 mg of calcium per dL of serum from ovx vehicle control. The “Hypercalcemic Dose”, i.e., the dose at which hypercalcemia is observed 24 hours after injection of the test compound using clinical chemistry data and sera collected from cardiac puncture, is determined by interpolation, using regression analysis to fit the calcemic dose response observed 24 hours after administering the compound to ovariectomized rats.
Female Sprague-Dawley rats about 6 months of age are ovariectomized, except for sham controls, and maintained on a 12 hour light/dark cycle at 22° C. with ad lib access to food (TD 89222 with 0.5% Ca and 0.4% P, Teklad, Madison, Wis.) and water. Ovariectomized (Ovx) rats are allowed to lose bone for one month before treatment with compounds of the invention for two additional months. The compound to be tested is subcutaneously administered at various doses (as indicated in Table 3 below) in a vehicle of 20 mM NaH2PO4 in 0.9% NaCl, 3 mg/ml mannitol, pH 5, every 6 or 7 days for two months. Sham and Ovx controls are treated with the vehicle only (“sham vehicle control” and “ovx vehicle control”). Sera are then collected by cardiac puncture under isoflurane anesthesia at necropsy, and analyzed using a clinical chemistry analyzer. Lumbar vertebra L4-6 and left femora are removed, cleaned of soft-tissue and stored in 50% ethanol/saline at 4° C. At room temperature, L-5 in 50% EtOH/saline are wrapped in Parafilm and centered with respect to the QCT gantry (Research M, Stratec). A coronal scout scan of the L-5 vertebra is generated first in 2D before 3D analysis. QCT parameters are measured including BMD (mg/cc), BMC (mg), and cross-sectional area (mm^2). Lumbar vertebra L-5, femoral midshaft, and proximal femur are then prepared for biomechanical testing. Strength (N) is evaluated by loading the specimens to failure as described previously (Sato, et al., Endocrinology, […]:4330-4337, 1997).
Pegylated compounds of the invention are evaluated in this assay relative to a positive control of 3-5 μg/kg/d PTH(1-38). PTH(1-34) and PTH(1-38) are found to be indistinguishable in terms of skeletal efficacy or calcemic effects in osteopenic ovariectomized rats. It has been previously shown that rats administered 5 μg/kg/d (1 nmol/kg/d) PTH(1-34) have a systemic exposure that is about 3 times that of PTH(1-34) (i.e., FORTEO™) in humans (Tashjian and Chabner, J. Bone Miner Res, 17:1151-1161, 2002; Tashjian and Gagel, J. Bone Miner Res, 21:354-365, 2006). […] This is confirmed for PTH(1-38) in this model with a dosing of 3-5 μg/kg/d.

[3] = tested on: aged osteopenic ovariectomized rats; assay: Direct comparison of 2 kD and 5 kD pegylated SEQ ID NO: 1 in aged osteopenic ovariectomized rats; details: for Serum Calcium: 24 hours after dosing
Text: A compound of the invention with SEQ ID NO: 1, wherein the mPEG to which it is conjugated is a 2 kD mPEG, is directly compared to a compound of the invention with SEQ ID NO: 1, wherein the mPEG to which it is conjugated is a 5 kD mPEG. Aged osteopenic ovariectomized rats are permitted to lose bone for one month before dosing (nmol/kg as in Table 5 and 6) every 6 days with vehicle alone, or the 2 kD pegylated SEQ ID NO: 1 compound or the 5 kD pegylated SEQ ID NO: 1 compound for 8 weeks.

[4] = 11 nmol/kg every 6 days for 8 weeks
[5] = 32 nmol/kg every 6 days for 8 weeks
[6] = 108 nmol/kg every 6 days for 8 weeks

## SEQ ID NO: 1 with 5 kD mPEG (SVSEIQLMHNLGRHLASMERVEWLRKLLQDVHNF-NH2; not fully specified (residue 26))
[1]
  Hypercalcemic Dose/BMD Dose: >8.8
[2]; derived from Table 3
  Hypercalcemic Dose/Femoral Neck Strength Dose: >9.7
  Hypercalcemic Dose/Midshaft Strength Dose: >1.0
  Hypercalcemic Dose/Vertebral BMC Dose: >3.34
  Hypercalcemic Dose/Vertebral BMD Dose: >1.0
  Hypercalcemic Dose/Vertebral Strength Dose: >1.0
[2]; dose at which Sham level of vertebral BMC is achieved
  Vertebral BMC Dose: 32 nmol/kg
[2]; dose at which Sham level of vertebral BMD is achieved, s.c. every 6 or 7 days for two months
  Vertebral BMD Dose: >108 nmol/kg
[2]; dose at which femoral neck strength comparable to sham vehicle control and positive control is achieved
  Fem Neck Strength Dose: 11 nmol/kg
[2]; dose at which midshaft strength comparable to sham vehicle control and positive control is achieved
  Midshaft Strength Dose: 108 nmol/kg
[2]; dose at which vertebral strength comparable to sham and positive control is achieved
  Vertebral Strength Dose: 108 nmol/kg
[2]; sera 24 hours after administration, > means highest dose tested, not reached
  Hypercalcemia Dose: >107 nmol/kg
[3]; [4]
  Vertebral BMD: 567 mg/cc
  Serum Calcium: 10.86 mg/dL
[3]; [5]
  Vertebral BMD: 589 mg/cc
  Serum Calcium: 10.79 mg/dL
[3]; [6]
  Vertebral BMD: 612 mg/cc
  Serum Calcium: 11.03 mg/dL
